Measurements: patent publication US20250163160A1 (Amgen, published 2025)

Columns and labels:
[1] = target: T1, human FGF21 receptor (FGF21R): full length human FGFR1c and full length human β-Klotho co-expressed on cells (human, UniProt P11362 22-822; Q86Z14 53-1044); test: cell-based or functional assay
[2] = target: T1, human FGF21 receptor (FGF21R): full …; test: cell-based or functional assay; remark: listed apart in the source

Row | EC50 (read off the curve); luciferase reporter (RLU) in AM-1/D FGFR1c+β-Klotho Luc cells, FGF21 alone (0 nM 39F11) [1] [nM] | EC50 (nM), Erk-phosphorylation, human adipocyte assay [2] [nM] | Binder
1 | 1 to 2 |  | Fibroblast Growth Factor 21 (FGF21), human (ligand, Alexa 647-NHS label (Example 1); biotin (Example 8, second Biacore analysis)) HPIPDSSPLLQFGGQVRQRYLYTDDAQQTEAHLEIREDGTVGGAADQSPESLLQLKALKPGVIQILGVKTSRFLCQRPDGALYGSLHFDPEACSFRELLLEDGYNVYQSEAHGLPLHLPGNKSPHRDPAPRGPARFLPLPGLPPAPPEPPGILAPQPPDVGSSDPLSMVGPSQGRSPSYAS
2 |  | 0.63 | 16H7 variant, heavy chain H3, light chain D49A (antibody, human IgG2, lambda, V domains shown) VH: not shown VL: SYVLTQPPSVSVAPGQTARITCGGNNIGSESVHWYQQKPGQAPVLVVYADSDRPSGIPERFSGSNSGNTATLTISRVEAGDEADYYCQVWDGNSDHVVFGGGTKLTVLG
3 |  | 1.3 | 16H7 variant, heavy chain H3, light chain D91A (antibody, human IgG2, lambda, V domains shown) VH: not shown VL: SYVLTQPPSVSVAPGQTARITCGGNNIGSESVHWYQQKPGQAPVLVVYDDSDRPSGIPERFSGSNSGNTATLTISRVEAGDEADYYCQVWAGNSDHVVFGGGTKLTVLG
